Assay results taken from patent publication US20130336885A1 (Genentech, published 2013).
Positions count from the first letter of the chain named.

Key:
[1] = biological target: T1, human LgR5 ECD (amino acids 22-557 fused to His-Fc expressed in a baculovirus system, or amino acids 22-558 … (human, UniProt O75473 22-557)); test: BIAcore-3000 SPR, IgG captured on goat anti-human Fc, human LgR5 ECD-Fc injected, 25 C, 1:1 Langmuir model
T1 construct: not shown: C-terminal His-tagged Fc
T1 sequence: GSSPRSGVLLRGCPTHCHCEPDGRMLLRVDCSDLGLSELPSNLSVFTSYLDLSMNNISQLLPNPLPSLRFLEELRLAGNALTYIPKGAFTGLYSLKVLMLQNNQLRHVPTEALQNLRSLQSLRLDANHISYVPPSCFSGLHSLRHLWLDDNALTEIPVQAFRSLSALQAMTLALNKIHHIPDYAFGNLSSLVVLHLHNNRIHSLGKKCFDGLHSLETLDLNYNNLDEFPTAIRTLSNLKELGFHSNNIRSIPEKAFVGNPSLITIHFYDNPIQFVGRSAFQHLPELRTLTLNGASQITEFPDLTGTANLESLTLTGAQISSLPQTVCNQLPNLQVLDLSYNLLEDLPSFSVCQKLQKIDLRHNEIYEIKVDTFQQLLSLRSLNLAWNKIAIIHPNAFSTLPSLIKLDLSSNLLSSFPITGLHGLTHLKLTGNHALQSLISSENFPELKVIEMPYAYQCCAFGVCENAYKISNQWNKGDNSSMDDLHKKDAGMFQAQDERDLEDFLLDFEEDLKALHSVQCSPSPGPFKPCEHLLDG
Procedure: The affinity of each 8E11 IgG variant for human LgR5 was determined by surface plasmon resonance using a BIAcore™-3000. BIAcore™ research grade CMS chips were activated with 1-ethyl-3-(3-dimethylaminopropyl) carbodiimide (EDC) and N-hydroxysuccinimide (NHS) reagents according to the supplier's instructions. Goat anti-human Fc IgGs were coupled to the chips to achieve approximately 10,000 response units (RU) in each flow cell. Unreacted coupling groups were blocked with 1M ethanolamine. For kinetics measurements, anti-LGR5 antibodies were captured to achieve approximately 300 RU. Two-fold serial dilutions of human LgR5ECD (amino acids 22-557 fused to His-Fc expressed in a baculovirus system, or amino acids 22-558 fused to Fc expressed from CHO cells; 125 nM to 0.49 nM) were injected in HBS-P buffer (0.01M HEPES pH7.4, 0.15M NaCl, 0.005% surfactant P20) at 25° C. with a flow rate of 30 μl/min. Association rates (kₒₙ) and dissociation rates (koff) were calculated using a 1:1 Langmuir binding model (BIAcore™ Evaluation Software version 3.2). The equilibrium dissociation constant (Kd) was calculated as the ratio koff/kₒₙ.

[2] = biological target: T1, human LgR5 ECD (amino acids 22-557 …); test: SPR (BIAcore-3000), antibody captured by anti-human Fc, LgR5 ECD-Fc injected
[3] = biological target: T2, gD epitope-tagged LgR5 22-123 (amino acids 22-123 of SEQ ID NO: 67) with a C-terminal GPI anchor on … (human, UniProt O75473 22-123, C-terminal GPI anchor); test: FACS on transiently transfected 293 cells
T2 sequence: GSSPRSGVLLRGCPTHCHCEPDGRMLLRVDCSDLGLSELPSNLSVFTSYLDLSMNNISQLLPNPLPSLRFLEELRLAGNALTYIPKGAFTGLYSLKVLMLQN

[4] = biological target: T3, gD epitope-tagged LgR5 424-907 (amino acids 424-907 of SEQ ID NO: 67) on transiently transfected 293 cells (human, UniProt O75473 424-907); test: FACS on transiently transfected 293 cells
T3 sequence: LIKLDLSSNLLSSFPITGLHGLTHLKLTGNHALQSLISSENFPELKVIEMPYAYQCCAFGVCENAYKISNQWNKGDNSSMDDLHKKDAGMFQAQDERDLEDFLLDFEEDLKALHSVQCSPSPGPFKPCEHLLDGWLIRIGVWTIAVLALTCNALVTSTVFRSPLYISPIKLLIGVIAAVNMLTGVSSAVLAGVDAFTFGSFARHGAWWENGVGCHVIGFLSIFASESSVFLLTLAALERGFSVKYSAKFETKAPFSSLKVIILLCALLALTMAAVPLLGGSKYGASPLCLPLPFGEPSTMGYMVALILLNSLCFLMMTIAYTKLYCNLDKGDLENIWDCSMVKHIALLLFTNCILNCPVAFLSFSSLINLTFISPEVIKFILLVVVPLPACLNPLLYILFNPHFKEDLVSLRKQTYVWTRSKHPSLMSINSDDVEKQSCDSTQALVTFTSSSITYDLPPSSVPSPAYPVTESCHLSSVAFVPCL

[5] = biological target: T4, gD epitope-tagged LgR5 22-323 (amino acids 22-323 of SEQ ID NO: 67) with a C-terminal GPI anchor on … (human, UniProt O75473 22-323, C-terminal GPI anchor); test: FACS on transiently transfected 293 cells
T4 sequence: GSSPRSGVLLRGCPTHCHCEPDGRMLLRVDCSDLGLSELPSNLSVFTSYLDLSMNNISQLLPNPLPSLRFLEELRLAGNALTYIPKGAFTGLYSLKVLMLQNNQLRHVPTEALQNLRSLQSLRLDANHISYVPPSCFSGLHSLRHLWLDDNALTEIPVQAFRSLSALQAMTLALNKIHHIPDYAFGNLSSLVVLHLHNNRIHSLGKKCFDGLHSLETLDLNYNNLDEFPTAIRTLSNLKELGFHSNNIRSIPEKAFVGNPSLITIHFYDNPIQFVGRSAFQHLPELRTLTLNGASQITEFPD

[6] = biological target: T5, gD epitope-tagged mouse LgR5 expressed on stably transfected 293 cells (mouse, UniProt Q9Z1P4 22-907); test: FACS on 293 cells stably transfected with gD epitope-tagged LgR5, 10 ug/ml antibody, R-Phycoerythrin goat anti-human detection
T5 construct: also called gD-tagged mouse LgR5
T5 sequence: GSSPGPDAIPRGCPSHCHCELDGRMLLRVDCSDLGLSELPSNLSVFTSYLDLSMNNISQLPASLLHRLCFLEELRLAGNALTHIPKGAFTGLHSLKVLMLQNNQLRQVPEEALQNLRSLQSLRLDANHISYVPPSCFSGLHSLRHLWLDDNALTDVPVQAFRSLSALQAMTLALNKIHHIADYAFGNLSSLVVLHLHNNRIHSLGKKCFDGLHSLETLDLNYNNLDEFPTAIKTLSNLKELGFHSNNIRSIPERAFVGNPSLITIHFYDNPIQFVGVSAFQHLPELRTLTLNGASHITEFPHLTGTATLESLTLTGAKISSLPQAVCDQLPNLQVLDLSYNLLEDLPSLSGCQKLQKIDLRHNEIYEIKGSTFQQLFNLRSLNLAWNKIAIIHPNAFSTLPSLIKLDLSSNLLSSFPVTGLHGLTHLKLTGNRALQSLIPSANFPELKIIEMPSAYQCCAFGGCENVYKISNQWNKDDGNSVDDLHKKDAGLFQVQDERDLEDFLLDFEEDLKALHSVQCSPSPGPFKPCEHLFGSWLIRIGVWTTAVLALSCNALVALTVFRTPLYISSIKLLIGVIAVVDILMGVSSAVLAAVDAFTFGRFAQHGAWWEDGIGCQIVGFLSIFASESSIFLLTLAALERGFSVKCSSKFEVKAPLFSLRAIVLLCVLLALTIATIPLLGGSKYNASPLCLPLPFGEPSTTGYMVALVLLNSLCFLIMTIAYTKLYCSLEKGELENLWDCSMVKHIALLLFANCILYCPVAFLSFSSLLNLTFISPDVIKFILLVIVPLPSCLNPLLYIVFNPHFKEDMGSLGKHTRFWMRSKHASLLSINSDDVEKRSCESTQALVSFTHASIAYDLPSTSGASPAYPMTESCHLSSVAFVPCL
Procedure: Monoclonal antibodies were tested to determine if they cross-react with LgR5 from species other than human. […] Residues that are identical among all four species are indicated by asterisks (*). […] YW353 antibody binds human and cynomolgus monkey LgR5, but not rat or mouse LgR5. Ch8E11 and hu8E11.v2 antibodies bind all four species of LgR5, although binding to rat LgR5 is not as strong as binding to human, cynomolgus monkey, or mouse LgR5. 2H6 antibody binds to human and mouse LgR5, and was not tested for binding to cynomolgus monkey or rat LgR5.

B1: h8E11.v3 (antibody, V domains shown)
VH: EVQLVQSGAEVKKPGASVKVSCKASGYTFSAYWIEWVRQAPGQGLEWIGEILPGSDSTDYNEKFKVRVTITSDTSTSTVYLELSSLRSEDTAVYYCARGGHYGSLDYWGQGTLVTVSS
VL: DIVMTQSPDSLAVSLGERATINCRASESVDNYGNSFMHWYQQKPGQPPKLLIYLASNLESGVPDRFSGSGSRTDFTLTISSLQAEDVAVYYCQQNYEDPFTFGQGTKVEIKR
notes: VH CDR graft + 71S/78V; also called hu8E11.v3
B1 gave a Kd [1] of 4.73 nM, a koff [1] of 0.00053 s⁻¹ and a kon [1] of 112000 M⁻¹ s⁻¹.

B2: h8E11.v4 (antibody, V domains shown)
VH: B1 VH with V68A, I70F
VL: B1 VL
notes: VH CDR graft + 67A/69F/71S/78V; also called hu8E11.v4
B2 showed a Kd [1] of 3.63 nM, a koff [1] of 0.000922 s⁻¹ and a kon [1] of 254000 M⁻¹ s⁻¹.

B3: h8E11.v6 (antibody, V domains shown)
VH: B1 VH with S72A, V79A
VL: B1 VL with R72G
notes: VH CDR graft + 71A/78A; also called hu8E11.v6
In the case of B3, the Kd [1] is reported as 14.1 nM, the koff [1] is reported as 0.00202 s⁻¹ and the kon [1] is reported as 143000 M⁻¹ s⁻¹.

B4: h8E11.v5 (antibody, V domains shown)
VH: B1 VH with S72R, V79A
VL: B1 VL with R72G
notes: VH CDR graft + 71R/78A; also called hu8E11.v5
Binder B4 has a Kd [1] of 14.3 nM, a koff [1] of 0.000933 s⁻¹ and a kon [1] of 65000 M⁻¹ s⁻¹.

B5: h8E11.v1 (antibody, V domains shown)
VH: B1 VH
VL: B1 VL with R72G
notes: VH CDR graft + 71S/78V; also called hu8E11.v1
B5 was tested, and the Kd [1] was 5.05 nM, the koff [1] was 0.000772 s⁻¹ and the kon [1] was 153000 M⁻¹ s⁻¹.

B6: h8E11.v7 (antibody, V domains shown)
VH: B1 VH with S72R, V79A
VL: B1 VL
notes: VH CDR graft + 71R/78A; also called hu8E11.v7
B6 was tested, and the Kd [1] was 22.1 nM, the koff [1] was 0.00258 s⁻¹ and the kon [1] was 117000 M⁻¹ s⁻¹.

B7: h8E11.v8 (antibody, V domains shown)
VH: B1 VH with S72A, V79A
VL: B1 VL
notes: VH CDR graft + 71A/78A; also called hu8E11.v8
In the case of B7, the Kd [1] is reported as 8.97 nM, the koff [1] is reported as 0.00217 s⁻¹ and the kon [1] is reported as 242000 M⁻¹ s⁻¹.

B8: monoclonal antibody 3G12 (antibody, V domains shown)
VH: QVQLQQPGAEMVKPGASVKLSCKASVDTFNSYWMHWVKQRPGQGLEWIGEINPSNGRTNYIEKFKNRATVTVDKSSSTAFMQLSSLTSEDSAVYYCATGWYFDVWGAGTTVTVSS
VL: DVVMTQTPLSLPVSLGDQASISCRSSQSLVHSNGNTYLQWYLQKPGQSPKLLIYKVSNRFSGVPDRFSGSGSGTDFTLKISRVEAEDLGIYFCSQSTHFPYTFGGGTKLEIKR
notes: The variable domains are the same in both forms; also called m3G12; mu3G12
For B8, the Kd [2] was 72 nM, the binding result [3] was “no binding (tested: 10 µg/ml)” and the binding result [4] was “no binding (tested: 10 µg/ml)”. B8: no binding (tested: 10 µg/ml) [5]; binds [6].

B9: monoclonal antibody 2H6 (antibody, V domains shown)
VH: EVQLQQSGPELVKPGTSMKISCKASGYSFTGYTMNWVKQSHKNGLEWIGLINCYNGGTNYNQKFKGKATLTVDKSSSTAFMELLSLTSEDSAVYYCARGGSTMITPRFAYWGQGTLVTVSS
VL: DIVMTQSPSSLTVTAGEKVTMSCKSSQSLLNSGNQKNYLTWFQQKPGQPPKLLIYWASTRESGVPDRFTGSGSGTDFTLTISNVQAEDLAVYYCQNDYSFPFTFGQGTKVEIKR
notes: The variable domains are the same in both forms; also called m2H6; mu2H6
In the case of B9, the Kd [2] is reported as 208 nM, the binding result [3] is reported as “no binding (tested: 10 µg/ml)” and the binding result [4] is reported as “no binding (tested: 10 µg/ml)”. B9: no binding (tested: 10 µg/ml) [5]; binds [6].
